Assays:
E6APR626A = target: T1, E6APR626A (Homo sapiens, UniProt Q05086, R649A); test: E6 rescue of 125I-polyubiquitin chain formation by E6APR626A; format: biochemical; conditions: 20 nM E6 protein
T1 construct: made in house; host or cells: E. coli
T1 sequence (Q05086 1-872 isoform Q05086-3 R646A): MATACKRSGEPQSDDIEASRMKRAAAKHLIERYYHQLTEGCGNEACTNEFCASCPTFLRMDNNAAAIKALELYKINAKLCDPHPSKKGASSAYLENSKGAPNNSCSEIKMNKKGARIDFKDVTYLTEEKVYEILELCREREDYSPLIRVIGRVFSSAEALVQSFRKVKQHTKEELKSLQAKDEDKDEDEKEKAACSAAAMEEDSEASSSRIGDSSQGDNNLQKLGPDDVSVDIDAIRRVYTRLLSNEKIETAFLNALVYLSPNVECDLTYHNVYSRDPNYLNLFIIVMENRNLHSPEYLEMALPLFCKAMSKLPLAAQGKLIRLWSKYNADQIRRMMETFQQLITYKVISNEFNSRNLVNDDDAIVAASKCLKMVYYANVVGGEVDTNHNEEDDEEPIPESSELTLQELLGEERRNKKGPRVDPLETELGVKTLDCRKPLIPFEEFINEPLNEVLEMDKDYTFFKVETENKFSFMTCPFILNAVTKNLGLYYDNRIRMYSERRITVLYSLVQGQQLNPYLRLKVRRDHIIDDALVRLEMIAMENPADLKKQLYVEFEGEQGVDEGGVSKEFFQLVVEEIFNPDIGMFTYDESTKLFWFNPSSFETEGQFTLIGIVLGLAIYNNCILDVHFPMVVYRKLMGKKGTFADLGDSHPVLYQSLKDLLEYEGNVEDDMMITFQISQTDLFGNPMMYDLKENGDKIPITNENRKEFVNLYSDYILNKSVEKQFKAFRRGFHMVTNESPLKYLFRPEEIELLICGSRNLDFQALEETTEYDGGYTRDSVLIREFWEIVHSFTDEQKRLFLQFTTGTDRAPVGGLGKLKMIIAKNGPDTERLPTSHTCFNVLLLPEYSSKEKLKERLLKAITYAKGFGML
Description: (§1) E6AP-catalyzed ^125I-Ubiquitin Conjugation Assay: The E3 ligase activity of recombinant E6AP ligase was quantitated in kinetic assays under initial velocity conditions (Ronchi et al., (2013) J. Biol. Chem. 288, 10349-10360, Ronchi & Haas (2012) Methods Mol. Biol. 832: 197-218). Rates of E6AP-catalyzed ^125I-polyubiquitin chain formation were measured at 37° C. in incubations of 25-μl final volume containing 50 mM Tris-HCl (pH 7.5), 1 mM ATP, 10 mM MgCl2, 1 mM DTT, 10 mM creatine phosphate, 1 IU of creatine phosphokinase, 5 μM ^125I-ubiquitin (approximately 1.5×10^4 cpm/pmol), 50 nM human Uba1, and the indicated concentrations of UbcH7 and E6AP ligase (Siepmann et al., (2003) J. Biol. Chem. 278: 9448-9457; Baboshina et al., (2001) J. Biol. Chem. 276: 39428-39437). […]
(§2) Polyubiquitin chain formation was measured by excising lanes between the top of the resolving gel and the top of the stacker gel, representing anchored and free ^125I-polyubiquitin chains, respectively, and quantitating associated ^125I-ubiquitin by γ-counting. Absolute rates of ^125I-polyubiquitin chain formation were calculated from the associated radioactivity and the corrected specific radioactivity for ^125I-ubiquitin. Datum points represent single assay determinations, and complete data sets were evaluated by non-linear regression analysis using GraFit version 5.0 (Erithicus). […]

E6APY533A = target: T2, E6APY533A (Homo sapiens, UniProt Q05086, Y556A); test: E6 rescue of 125I-polyubiquitin chain formation by E6APY533A; format: biochemical; conditions: 20 nM E6 protein
T2 construct: made in house; host or cells: E. coli
T2 sequence (Q05086 1-872 isoform Q05086-3 Y553A): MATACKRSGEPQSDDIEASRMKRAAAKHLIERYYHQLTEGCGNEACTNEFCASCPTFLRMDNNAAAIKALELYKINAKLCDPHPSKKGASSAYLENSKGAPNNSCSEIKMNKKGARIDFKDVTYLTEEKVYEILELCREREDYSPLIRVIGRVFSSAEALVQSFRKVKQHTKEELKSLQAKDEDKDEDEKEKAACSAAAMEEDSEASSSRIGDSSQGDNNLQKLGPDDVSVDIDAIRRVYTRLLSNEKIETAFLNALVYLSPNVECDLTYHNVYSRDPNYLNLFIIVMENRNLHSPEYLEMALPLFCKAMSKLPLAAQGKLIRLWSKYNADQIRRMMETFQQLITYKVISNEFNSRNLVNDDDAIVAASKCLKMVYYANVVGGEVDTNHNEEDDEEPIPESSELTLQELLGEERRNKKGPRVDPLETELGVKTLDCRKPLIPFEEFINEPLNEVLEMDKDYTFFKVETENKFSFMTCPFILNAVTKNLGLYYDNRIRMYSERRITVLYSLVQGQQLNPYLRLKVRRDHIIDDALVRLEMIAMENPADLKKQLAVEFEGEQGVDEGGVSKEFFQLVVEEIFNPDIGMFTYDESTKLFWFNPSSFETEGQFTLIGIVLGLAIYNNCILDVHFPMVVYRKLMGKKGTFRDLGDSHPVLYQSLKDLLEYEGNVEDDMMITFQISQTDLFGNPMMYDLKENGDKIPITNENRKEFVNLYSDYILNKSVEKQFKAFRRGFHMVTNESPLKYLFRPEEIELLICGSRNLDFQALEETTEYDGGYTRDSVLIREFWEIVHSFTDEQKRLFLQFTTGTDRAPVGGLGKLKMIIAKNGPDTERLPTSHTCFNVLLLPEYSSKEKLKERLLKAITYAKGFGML
Description: as §1, §2

B1: E6 protein: recombinant human papilloma virus 16 E6 protein, 158 amino acids (protein)
chain: MHQKRTAMFQDPQERPRKLPQLCTELQTTIHDIILECVYCKQQLLRREVYDFAFRDLCIVYRDGNPYAVCDKCLKFYSKISEYRHYCYSLYGTTLEQQYNKPLCDLLIRCINCQKPLCPEEKQRHLDKKQRFHNIRGRWTGRCMSCCRSSRTRRETQL
Molecule B1 has an increase in rate (E6APR626A) of 13 fold and an increase in rate (E6APY533A) of 8 fold.

From US9725708B2, “Methods of modulating ubiquitin ligase activity” (Board of Supervisors of Louisiana State University and …, priority 2012, dated 2017)
